Laboratory results: patent US11312781B2, “Antigen binding molecules that bind LIGHT” (Capella Bioscience Ltd., priority 2018, dated 2022)
Substitutions are numbered along the chain they refer to.

Tests used:
[1] = target: T1, DcR3 binding to membrane LIGHT (EL4-LIGHT cells) (Homo sapiens, UniProt O43557); assay: Competition binding of anti-membrane LIGHT antibodies with DcR3-His on EL4-LIGHT cells; details: mAb at up to 100 nM
T1 construct: expressed in transfected cells; host or cells: EL4 mouse lymphoma cells, stably transduced
Procedure: DcR3 (TNFRSF6B) is a decoy receptor that competes with receptors for ligand binding. DcR3 can bind and neutralise LIGHT with high affinity and TL1A and FasL with lower affinity (Zhan C et al. Structure. 2011, 19:162-71 “Decoy strategies: the structure of TL1A:DcR3 complex”). Stably transduced LIGHT-expressing EL4 cells (mouse lymphoma cell line; EL4-LIGHT) were used for the flow cytometry-based competition-binding analysis.
EL4-LIGHT cells (0.25×10^6) were preincubated with anti-membrane LIGHT mAbs (0-300 nM) for 15 min at 4° C. followed by incubation with DcR3-His tagged (1 nM, Creative BioMart; ref:TNFRSF6B-552H, lot:962512) for 30 min at 4° C. The samples were then incubated with mouse anti-histag antibody (diluted 1:500, Biolegend, cat. no. 652502) for 30 minutes at 4° C., followed by incubation with anti-mouse APC (dil 1:500, BDBiosciences, cat. no. 550826) for 30 minutes at 4° C. The tubes were washed three times after each of the detection antibody stages and flow cytometry analysis was performed. Specific mean fluorescence intensity (MFI) obtained from the binding of DcR3-His to LIGHT on EL4 cells were used to determine the levels of competition binding.

[2] = target: T2, membrane LIGHT stably expressed on EL4 cells (Homo sapiens, UniProt O43557); assay: Binding ratio of mAbs bound to membrane LIGHT by flow cytometry (EL4 cells); details: FIG. 7
T2 construct: expressed in transfected cells; host or cells: EL4 mouse lymphoma cells, stably transduced (Cheung et al. J. Immunol. 2009)
Procedure: Stably transduced LIGHT expressing EL4 cells (mouse lymphoma cell line; EL4-LIGHT; Cheung et al. J. Immunol. 2009; 183:7286-7296) were used for the flow cytometry-based binding analysis. EL4-LIGHT cells (0.25×10^6 per well) that had been washed in were incubated with anti-LIGHT IgG4 clones (0.002-100 nM) for 30 min at 4° C. The cells were washed and anti-human IgG-APC conjugate (diluted 1:500, Biolegend cat. No. 409306) was used for detecting anti-LIGHT IgG bound on EL4-LIGHT cells.
FIG. 7 depicts the flow cytometry analysis of the anti-membrane LIGHT mAbs (3B04 and 3D12) binding to LIGHT stably expressed on EL4 cells. The maximum signal of the IgG4 mAbs 3B04 and 3D12 binding to membrane LIGHT is approximately 40000 MFI. In contrast anti-LIGHT mAbs F19 and F23 (IgG4 mAbs from EP2292663) gave a maximal signal of approximately 120000 MFI. The ratio of binding of mAb F19 and mAb F23 is approximately 3 times that of the anti-membrane LIGHT mAbs 3B04 and 3D12. […] Other mAbs of this invention; 2E08, 3A07, 3C10, 3E09 and 2B11 also bind LIGHT in a 1:1 ratio when compared to mAbs F19 and F23 by flow cytometry.

T1 sequence (O43557 whole entry): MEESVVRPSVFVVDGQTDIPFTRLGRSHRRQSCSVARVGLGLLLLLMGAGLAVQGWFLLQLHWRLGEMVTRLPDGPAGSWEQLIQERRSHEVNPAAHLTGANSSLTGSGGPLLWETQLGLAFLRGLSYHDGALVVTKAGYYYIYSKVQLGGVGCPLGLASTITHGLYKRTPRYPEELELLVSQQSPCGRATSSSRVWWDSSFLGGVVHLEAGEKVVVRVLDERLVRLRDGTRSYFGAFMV
T2 sequence (O43557 whole entry): as above

B1: 3B04: parental mouse anti-membrane LIGHT antibody, VL SEQ ID NO 1, VH SEQ ID NO 5; tested as chimeric human IgG4 mAb (antibody, listed as Homo sapiens, V domains shown)
VH: QVQLQQPGAELVRPGASVTLSCKASGYTFTDYEMHWVKQTPVHGLEWIGEIDPETGDTAYSQKFKGKATLTADKSSSTAYMEFRSLTSEDSAVYYCSRETDYFFDYWGQGTTLTVSS
VL: DIQMTQTPASLSASVGETVTITCGASENIYGALNWYQRKQGKSPQLLIYGATNLADGMSSRFSGSGSGRQYSLKISSLHPDDFATYYCQNVLTTPWTFGGGTKLEIKR
In the case of B1, the “Inhibition of DcR3 binding to membrane LIGHT” value [1] is reported as “only partially inhibit” and the “Maximum signal of binding to membrane LIGHT” value [2] is reported as “approximately 40000 MFI”.

B2: 3D12: parental mouse anti-membrane LIGHT antibody, VL SEQ ID NO 41, VH SEQ ID NO 45; tested as chimeric human IgG4 mAb (antibody, listed as Homo sapiens, V domains shown)
VH: B1 VH with G26D, Y32S, M34I, D57G, S61N, F83L
VL: B1 VL with T7S, F83V, T93S
With B2 the “Inhibition of DcR3 binding to membrane LIGHT” value [1] was “only partially inhibit” and the “Maximum signal of binding to membrane LIGHT” value [2] was “approximately 40000 MFI”.
